Measurements published in patent US20160298117, “PEANUT-BINDING NUCLEIC ACID MOLECULE AND USE THEREOF” (NEC Solution Innovators, Ltd., published 2016).

T1: conarachin (undenatured) (Arachis hypogaea) (UniProt P43238)
T1 sequence: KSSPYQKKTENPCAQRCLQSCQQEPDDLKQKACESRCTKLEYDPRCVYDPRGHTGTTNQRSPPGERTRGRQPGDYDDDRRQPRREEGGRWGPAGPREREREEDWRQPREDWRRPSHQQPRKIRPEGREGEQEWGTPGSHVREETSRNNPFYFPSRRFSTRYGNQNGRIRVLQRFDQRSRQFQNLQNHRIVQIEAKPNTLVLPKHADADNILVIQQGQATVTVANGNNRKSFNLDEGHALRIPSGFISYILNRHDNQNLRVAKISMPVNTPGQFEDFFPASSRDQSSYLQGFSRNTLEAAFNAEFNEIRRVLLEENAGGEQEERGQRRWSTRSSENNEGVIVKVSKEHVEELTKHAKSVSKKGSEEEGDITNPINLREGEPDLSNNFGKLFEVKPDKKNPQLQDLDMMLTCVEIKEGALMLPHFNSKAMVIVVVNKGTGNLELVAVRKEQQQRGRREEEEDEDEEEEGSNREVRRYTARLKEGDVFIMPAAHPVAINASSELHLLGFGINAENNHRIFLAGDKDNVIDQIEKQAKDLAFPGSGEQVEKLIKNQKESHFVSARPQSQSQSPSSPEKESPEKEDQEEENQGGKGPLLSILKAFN

T2: Ara h1 (heat-denatured, purified from parboiled peanut) (Arachis hypogaea, UniProt P43238 P43238:26-626)
T2 sequence: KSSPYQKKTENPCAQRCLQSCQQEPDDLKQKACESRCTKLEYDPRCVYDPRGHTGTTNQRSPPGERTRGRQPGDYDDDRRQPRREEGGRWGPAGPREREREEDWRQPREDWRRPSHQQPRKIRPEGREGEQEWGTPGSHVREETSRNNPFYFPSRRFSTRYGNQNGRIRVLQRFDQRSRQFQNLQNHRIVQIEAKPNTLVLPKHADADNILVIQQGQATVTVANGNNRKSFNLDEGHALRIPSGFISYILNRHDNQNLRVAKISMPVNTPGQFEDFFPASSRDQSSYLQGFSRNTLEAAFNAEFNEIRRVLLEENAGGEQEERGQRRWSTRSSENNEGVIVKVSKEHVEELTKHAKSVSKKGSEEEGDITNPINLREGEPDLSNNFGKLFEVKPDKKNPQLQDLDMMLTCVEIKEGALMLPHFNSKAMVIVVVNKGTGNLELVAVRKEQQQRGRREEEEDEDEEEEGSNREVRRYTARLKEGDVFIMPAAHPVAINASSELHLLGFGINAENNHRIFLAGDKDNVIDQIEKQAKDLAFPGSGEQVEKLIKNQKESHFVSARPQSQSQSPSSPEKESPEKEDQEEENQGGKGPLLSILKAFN

T3: conarachin (undenatured) (Arachis hypogaea, UniProt P43238 P43238:26-626)
T3 sequence: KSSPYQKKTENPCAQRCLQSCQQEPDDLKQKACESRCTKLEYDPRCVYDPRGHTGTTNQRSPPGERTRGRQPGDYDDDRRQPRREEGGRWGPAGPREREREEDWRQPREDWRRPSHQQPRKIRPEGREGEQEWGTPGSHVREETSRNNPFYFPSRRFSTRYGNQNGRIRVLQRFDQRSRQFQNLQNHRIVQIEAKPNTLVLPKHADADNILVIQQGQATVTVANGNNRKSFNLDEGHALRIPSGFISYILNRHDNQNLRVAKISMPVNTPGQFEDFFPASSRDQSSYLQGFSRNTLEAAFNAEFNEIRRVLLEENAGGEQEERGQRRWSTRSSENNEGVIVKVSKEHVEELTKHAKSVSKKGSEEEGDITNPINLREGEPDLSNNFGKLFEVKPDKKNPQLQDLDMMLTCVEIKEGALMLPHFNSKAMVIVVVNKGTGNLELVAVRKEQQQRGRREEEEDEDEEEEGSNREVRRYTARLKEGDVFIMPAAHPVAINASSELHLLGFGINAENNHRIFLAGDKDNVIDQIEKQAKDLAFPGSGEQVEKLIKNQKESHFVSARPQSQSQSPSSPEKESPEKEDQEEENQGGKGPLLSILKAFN


Assays:
[1] = target: T1, conarachin (undenatured) (Arachis hypogaea); assay: SPR; conditions: all T replaced by 5-tryptaminocarbonyl-dU (TrpdU); printed as P_M_NES01 in table; same SPR buffer
[2] = target: T4, beta-conglycinin (undenatured) (Glycine max, UniProt P0DO16;P11827;P25974 P0DO16:63-605,P11827:63-621,P25974:24-439); assay: SPR; little binding; conditions: tags: Sigma C5868-5GM
Description: (§1) First, as a sensor chip designed specifically for the ProteON, a streptavidin-immobilized chip (trade name: ProteOn NLC Sensor Chip, BioRad) was set in the ProteON XPR36. Biotinylated poly(dT) at 5 μmol/L was injected to a flow cell of the sensor chip using ultrapure water (DDW), and the binding was allowed to proceed until the signal intensity (RU: Resonance Unit) reached about 900 RU. The biotinylated poly(dT) was prepared by biotinylating the 5′ end of 24-mer deoxythymidine. Then, the poly(dA)-added aptamer at 1 μmol/L was injected to the flow cell of the chip using an SPR buffer at a flow rate of 25 μL/min for 80 seconds, and the binding was allowed to proceed until the signal intensity reached about 800 RU. […] Subsequently, the sample was injected using the SPR buffer at a flow rate of 50 μL/min for 120 seconds, followed by washing performed by flowing the SPR buffer under the same conditions. Signal intensity measurement was performed concurrently with the injection of the sample and the washing with the SPR buffer.
(§2) Except that the following eight types of aptamers were used as pyrimidine-rich aptamers, the binding forces to Ara h1, heat-denatured peanut proteins, undenatured β-conglycinin, and heat-denatured soybean proteins were examined by SPR in the same manner as in the above-described examples.

[3] = target: T2, Ara h1 (heat-denatured, purified from …); assay: SPR; very high binding; conditions: tags: INDOOR biotechnologies NA-AH1-1
Description: as §1, §2

[4] = target: T4, beta-conglycinin (undenatured); assay: SPR; little binding, 18.75-300 nM; conditions: tags: Sigma C5868-5GM
Description: as §1
(§3) The concentrations of the β-conglycinin were set to 18.75, 37.5, 75, 150, and 300 nmol/L, and the protein concentrations in the soybean samples were set to 1, 3, 10, 30, and 100 ppm. The SPR analysis was performed in the same manner as in Example 1, except that these samples were used. Then, from the results of the above-described SPR analysis, the relative binding value was determined regarding the proteins in each peanut sample bound to the aptamer immobilized on the chip. The relative binding value was calculated as the ratio of the protein binding measured value to the aptamer immobilization measured value (the protein binding measured value/the aptamer immobilization measured value).

[5] = target: beta-conglycinin (heat-denatured, boiled 10 min) (Glycine max, UniProt P0DO16;P11827;P25974 P0DO16:63-605,P11827:63-621,P25974:24-439); assay: SPR; little binding, 18.75-300 nM; conditions: tags: Sigma C5868-5GM
Description: as §1, with “Biotinylated” for “First, as a sensor chip designed specifically for the ProteON, a streptavidin-immobilized chip (trade name: ProteOn NLC Sensor Chip, BioRad) was set in the ProteON XPR36. Biotinylated”
As soybean allergen samples, undenatured β-conglycinin, heat-denatured β-conglycinin, undenatured soybean proteins, and heat-denatured soybean proteins were provided. A commercially available product (Sigma, trade name β-conglycinin from Glycine max (soybean), C5868-5GM) was used as the undenatured β-conglycinin. The heat-denatured β-conglycinin was prepared by boiling the undenatured β-conglycinin for 10 minutes and then collecting a supernatant fraction. As the undenatured soybean proteins and the heat-denatured soybean proteins, the undenatured soybean sample and the heat-denatured soybean sample in Example 1 were used.
as §3, with “chip.” for “chip. The relative binding value was calculated as the ratio of the protein binding measured value to the aptamer immobilization measured value (the protein binding measured value/the aptamer immobilization measured value).”

conarachin (undenatured) = target: T3, conarachin (undenatured); assay: SPR; same SPR buffer; conditions: tags: COSMO BIO CSB-CSB-NP003601PL
Description: First, as a sensor chip designed specifically for the ProteON, a streptavidin-immobilized chip (trade name: ProteOn NLC Sensor Chip, BioRad) was set in the ProteON XPR36. Biotinylated poly(dT) at 5 μmol/L was injected to a flow cell of the sensor chip using ultrapure water (DDW), and the binding was allowed to proceed until the signal intensity (RU: Resonance Unit) reached about 900 RU. The biotinylated poly(dT) was prepared by biotinylating the 5′ end of 24-mer deoxythymidine. Then, the poly(dA)-added aptamer at 1 μmol/L was injected to the flow cell of the chip using an SPR buffer at a flow rate of 25 μL/min for 80 seconds, and the binding was allowed to proceed until the signal intensity reached about 800 RU. […]
Samples were prepared by adjusting commercially available peanut allergen conarachin (COSMO BIO, CSB-CSB-NP003601PL, Arachis hypogaea seed, Native) to 50 nmol/L, 25 nmol/L, 12.5 nmol/L, 6.25 nmol/L, and 3.125 nmol/L. The conarachin is a undenatured protein, and the conarachin generally accounts for about 17% of the total amount of peanut proteins in a peanut. The SPR analysis was carried out in the same manner as in Example 1, and the kinetic parameter was calculated from the results of the analysis.

T4 sequence (P0DO16 63-605, chain 1 of 3): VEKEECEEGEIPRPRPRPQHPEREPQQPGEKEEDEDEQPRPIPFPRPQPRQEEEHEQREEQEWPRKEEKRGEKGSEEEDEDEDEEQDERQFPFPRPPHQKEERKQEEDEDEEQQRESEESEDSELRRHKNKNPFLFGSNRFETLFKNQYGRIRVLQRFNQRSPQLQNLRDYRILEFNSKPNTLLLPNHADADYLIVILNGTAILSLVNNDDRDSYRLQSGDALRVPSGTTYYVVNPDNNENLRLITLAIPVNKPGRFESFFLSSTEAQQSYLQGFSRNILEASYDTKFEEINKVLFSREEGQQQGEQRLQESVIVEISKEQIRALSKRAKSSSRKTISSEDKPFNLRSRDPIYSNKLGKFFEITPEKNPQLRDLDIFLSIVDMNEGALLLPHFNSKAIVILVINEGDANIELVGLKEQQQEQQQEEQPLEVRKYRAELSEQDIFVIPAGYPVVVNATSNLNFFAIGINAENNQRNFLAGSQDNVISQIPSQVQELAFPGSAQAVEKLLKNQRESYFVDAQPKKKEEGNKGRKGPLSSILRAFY
T4 sequence (P11827 63-621, chain 2 of 3): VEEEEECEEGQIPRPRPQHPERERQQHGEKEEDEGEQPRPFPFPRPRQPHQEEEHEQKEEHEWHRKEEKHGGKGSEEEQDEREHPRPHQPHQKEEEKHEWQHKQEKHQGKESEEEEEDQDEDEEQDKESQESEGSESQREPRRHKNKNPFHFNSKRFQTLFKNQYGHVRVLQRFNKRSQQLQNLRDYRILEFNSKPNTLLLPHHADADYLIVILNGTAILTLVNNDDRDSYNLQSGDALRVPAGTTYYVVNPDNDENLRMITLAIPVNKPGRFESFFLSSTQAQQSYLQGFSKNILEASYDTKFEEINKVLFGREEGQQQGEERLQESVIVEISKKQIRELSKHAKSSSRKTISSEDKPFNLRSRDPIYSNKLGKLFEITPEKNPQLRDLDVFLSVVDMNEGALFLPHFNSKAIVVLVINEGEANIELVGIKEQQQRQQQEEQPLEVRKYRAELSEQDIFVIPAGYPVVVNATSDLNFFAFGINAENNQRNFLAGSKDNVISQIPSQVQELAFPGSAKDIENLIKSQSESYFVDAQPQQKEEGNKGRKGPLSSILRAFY
T4 sequence (P25974 24-439, chain 3 of 3): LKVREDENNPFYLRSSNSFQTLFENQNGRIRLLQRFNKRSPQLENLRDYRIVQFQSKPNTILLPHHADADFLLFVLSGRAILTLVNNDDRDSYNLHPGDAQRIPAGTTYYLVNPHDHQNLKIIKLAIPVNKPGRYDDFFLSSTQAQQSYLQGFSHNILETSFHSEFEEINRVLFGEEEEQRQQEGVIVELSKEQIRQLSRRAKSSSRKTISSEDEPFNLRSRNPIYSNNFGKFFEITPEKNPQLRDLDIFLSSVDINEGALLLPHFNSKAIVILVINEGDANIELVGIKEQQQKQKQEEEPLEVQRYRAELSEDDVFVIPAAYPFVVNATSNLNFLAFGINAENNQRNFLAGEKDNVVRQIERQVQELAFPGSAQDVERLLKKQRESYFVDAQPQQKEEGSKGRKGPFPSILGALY
beta-conglycinin (heat-denatured, boiled 10 min), sequence (P0DO16 63-605, chain 1 of 3): as the sequence (P0DO16 63-605, chain 1 of 3) above
beta-conglycinin (heat-denatured, boiled 10 min), sequence (P11827 63-621, chain 2 of 3): as the sequence (P11827 63-621, chain 2 of 3) above
beta-conglycinin (heat-denatured, boiled 10 min), sequence (P25974 24-439, chain 3 of 3): as the sequence (P25974 24-439, chain 3 of 3) above

Molecule	binding result [2]	binding result [3]	other results
GGATTCCGTGCCGTGCTAAAGGCCTCCCCGTTTATAGGCAGGTATCCGGCAGACTACTGGGCTTGCGACAAATGAAAAAAAAAAAAAAAAAAAAAAAA [P_NES_M01 (CONA170TEDAR2R8m1)]			Kd [1]: 0.0388 nM
CACACACACCCCCCCCCCCACACACAAAAAAAAAAAAAAAAAAAAAAAAA (ssDNA) [CA25_C11]	no binding	binds	
CACACACACACACACACACACACACAAAAAAAAAAAAAAAAAAAAAAAAA (ssDNA) [CA25_C0]	no binding	binds	
CACACACACACACCCACACACACACAAAAAAAAAAAAAAAAAAAAAAAAA (ssDNA) [CA25_C3]	no binding	binds	
CACACACACACCCCCCCACACACACAAAAAAAAAAAAAAAAAAAAAAAAA (ssDNA) [CA25_C7]	no binding	binds	
CTCTCTCTCCCCCCCCCCCTCTCTCAAAAAAAAAAAAAAAAAAAAAAAA (ssDNA) [CT25_C11]	no binding	binds	
CTCTCTCTCTCTCCCTCTCTCTCTCAAAAAAAAAAAAAAAAAAAAAAAA (ssDNA) [CT25_C3 (Pyrimidine rich)]			binding result [4]: no binding; binding result [5]: no binding; Kd (conarachin (undenatured)): 0.28 nM
